Experimental data from US20100081170A1.

Key:
[1] = target: native human CD20 on isolated normal human B cells (human) (UniProt P11836); test: Scatchard analysis, unlabeled against 125I-Fab on human B cells, Donor 4
[2] = target: native human CD20 on isolated normal human B cells (human) (UniProt P11836); test: Scatchard analysis, unlabeled against 125I-Fab on human B cells, Donor 5
[3] = target: C2S mutant of human CD20 (Cys111Ser, Cys220Ser), His-tagged (human) (UniProt P11836); test: SPR (BIAcore-3000), rituximab Fab immobilised on CM5, C2S-CD20 in 0.1% DDM as analyte, 1:1 model
[4] = target: C2S mutant of human CD20 (Cys111Ser, Cys220Ser), His-tagged (human) (UniProt P11836); test: SPR (BIAcore-3000), rituximab Fab immobilised on CM5, affinity purified C2S-CD20 as analyte, 1:1 model
[5] = target: His-tagged human CD20 expressed in E. coli (human) (UniProt P11836); test: SPR (BIAcore-3000), rituximab Fab immobilised on CM5, CD20 in 0.1% DDM as analyte, 1:1 model
[6] = target: His-tagged human CD20 expressed in E. coli (human) (UniProt P11836); test: SPR (BIAcore-3000), rituximab IgG immobilised on CM5, CD20 in 0.1% DDM as analyte, 1:1 model
[7] = target: native human CD20 on isolated normal human B cells (human) (UniProt P11836); test: Scatchard analysis, unlabeled against 125I-IgG on human B cells, Donor 1
[8] = target: native human CD20 on isolated normal human B cells (human) (UniProt P11836); test: Scatchard analysis, unlabeled against 125I-IgG on human B cells, Donor 2
[9] = target: native human CD20 on isolated normal human B cells (human) (UniProt P11836); test: Scatchard analysis, unlabeled against 125I-IgG on human B cells, Donor 3
[10] = target: His-tagged human CD20 expressed in E. coli (human) (UniProt P11836); test: ELISA, CD20 coated on the plate, rituximab titrated, detection with HRP goat anti-human F(ab')2, absorbance 450 nm
[11] = target: human CD20 expressed with the sLE leader (sLE.CD20), leader removed with thrombin (human) (UniProt P11836); test: as above
[12] = target: human CD20 expressed with the LE leader (LE.CD20), leader and His-tag removed with thrombin (human) (UniProt P11836); test: as above
Reduced, Reoxidized = test: ELISA, reduced and re-oxidized CD20 coated on the plate, rituximab titrated, detection with HRP goat anti-human F(ab')2, absorbance 450 nm
Chain of Reduced, Reoxidized (CD20 polypeptide, as listed by the source): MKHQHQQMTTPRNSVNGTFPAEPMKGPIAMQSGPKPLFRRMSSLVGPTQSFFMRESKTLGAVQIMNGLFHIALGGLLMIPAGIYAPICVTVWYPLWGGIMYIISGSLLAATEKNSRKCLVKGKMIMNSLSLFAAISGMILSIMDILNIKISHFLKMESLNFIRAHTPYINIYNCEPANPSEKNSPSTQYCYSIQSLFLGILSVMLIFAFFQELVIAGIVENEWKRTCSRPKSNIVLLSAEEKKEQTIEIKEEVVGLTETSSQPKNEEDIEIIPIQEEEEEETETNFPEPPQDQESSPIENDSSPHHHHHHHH

Kd [1] [nM] | Kd [2] [nM] | Ka [3] [M⁻¹] | Kd [3] [nM] | Ka [4] [M⁻¹] | Kd [4] [nM] | Ka [5] [M⁻¹] | Kd [5] [nM] | Ka [6] [M⁻¹] | Kd [7] [nM] | Kd [8] [nM] | Kd [9] [nM] | EC50 (read off the curve) [10] [nM] | EC50 (read off the curve) [11] [nM] | EC50 (read off the curve) [12] [nM] | EC50 (read off the curve) (Reduced, Reoxidized) [nM] | Substance
52 | 63 | 4.4e+06 | 230 | 5.4e+06 | 190 | 3.5e+06 | 280 | – | – | – | – | – | – | – | – | rituximab Fab
– | – | – | – | – | – | – | – | 6.6e+06 | 0.32 | 0.72 | 1.27 | 0.5 | 0.4 | 0.5 | 50 | rituximab full length antibody
